Tested on: GII.4 Sydney (SYV) norovirus VLP, assembled capsid protein VP1 (Human norovirus GII.4 Sydney)
Test: ELASA (plate binding)
Conditions: VLP heated 75 C 1 min (partly denatured); 1 uM aptamer; ELASA: VLPs on polystyrene plate, blocked with 5% skim milk in PBS + 0.05% Tween 20 with 10 nM unrelated primers (2 h, room temperature), 1 uM biotinylated …

“AGTATACGTATTACCTGCAGCTGGGAAGAGGTCCGGTAAATGCAGGGTCAGCCCGGAGAGCGATATCTCGGAGATCTTGC [M6-2]” gave a binding signal (% of signal with untreated VLP) of 20.1.

Reference: publication PMC5093151
